The values below come from IntAct's records for PubMed 39009827.

Sequences and labels used below:
B1: Microphthalmia-associated transcription factor (Homo sapiens), O75030 (parent)
chain: MQSESGIVPDFEVGEEFHEEPKTYYELKSQPLKSSSSAEHPGASKPPISSSSMTSRILLRQQLMREQMQEQERREQQQKLQAAQFMQQRVPVSQTPAINVSVPTTLPSATQVPMEVLKVQTHLENPTKYHIQQAQRQQVKQYLSTTLANKHANQVLSLPCPNQPGDHVMPPVPGSSAPNSPMAMLTLNSNCEKEGFYKFEEQNRAESECPGMNTHSRASCMQMDDVIDDIISLESSYNEEILGLMDPALQMANTLPVSGNLIDLYGNQGLPPPGLTISNSCPANLPNIKRELTACIFPTESEARALAKERQKKDNHNLIERRRRFNINDRIKELGTLIPKSNDPDMRWNKGTILKASVDYIRKLQREQQRAKELENRQKKLEHANRHLLLRIQELEMQARAHGLSLIPSTGLCSPDLVNRIIKQEPVLENCSQDLLQHHADLTCTTTLDLTDGTITFNNNLGTGTEANQAYSVPTKMGSKLEDILMDDTLSPVGVTDPLLSSVSPGASKTSSRRSSMSMEETEHTC
B2: BRCA1-A complex subunit Abraxas 1 (Homo sapiens), Q6UWZ7 (parent)
chain: MEGESTSAVLSGFVLGALAFQHLNTDSDTEGFLLGEVKGEAKNSITDSQMDDVEVVYTIDIQKYIPCYQLFSFYNSSGEVNEQALKKILSNVKKNVVGWYKFRRHSDQIMTFRERLLHKNLQEHFSNQDLVFLLLTPSIITESCSTHRLEHSLYKPQKGLFHRVPLVVANLGMSEQLGYKTVSGSCMSTGFSRAVQTHSSKFFEEDGSLKEVHKINEMYASLQEELKSICKKVEDSEQAVDKLVKDVNRLKREIEKRRGAQIQAAREKNIQKDPQENIFLCQALRTFFPNSEFLHSCVMSLKNRHVSKSSCNYNHHLDVVDNLTLMVEHTDIPEASPASTPQIIKHKALDLDDRWQFKRSRLLDTQDKRSKADTGSSNQDKASKMSSPETDEEIEKMKGFGEYSRSPTF
B3: Epithelial sodium channel subunit beta (Homo sapiens), P51168 (parent)
chain: MHVKKYLLKGLHRLQKGPGYTYKELLVWYCDNTNTHGPKRIICEGPKKKAMWFLLTLLFAALVCWQWGIFIRTYLSWEVSVSLSVGFKTMDFPAVTICNASPFKYSKIKHLLKDLDELMEAVLERILAPELSHANATRNLNFSIWNHTPLVLIDERNPHHPMVLDLFGDNHNGLTSSSASEKICNAHGCKMAMRLCSLNRTQCTFRNFTSATQALTEWYILQATNIFAQVPQQELVEMSYPGEQMILACLFGAEPCNYRNFTSIFYPHYGNCYIFNWGMTEKALPSANPGTEFGLKLILDIGQEDYVPFLASTAGVRLMLHEQRSYPFIRDEGIYAMSGTETSIGVLVDKLQRMGEPYSPCTVNGSEVPVQNFYSDYNTTYSIQACLRSCFQDHMIRNCNCGHYLYPLPRGEKYCNNRDFPDWAHCYSDLQMSVAQRETCIGMCKESCNDTQYKMTISMADWPSEASEDWIFHVLSQERDQSTNITLSRKGIVKLNIYFQEFNYRTIEESAANNIVWLLSNLGGQFGFWMGGSVLCLIEFGEIIIDFVWITIIKLVALAKSLRQRRAQASYAGPPPTVAELVEAHTNFGFQPDTAPRSPNTGPYPSEQALPIPGTPPPNYDSLRLQPLDVIESDSEGDAI
B4: BCL11 transcription factor A (Homo sapiens), Q9H165 (parent)
chain: MSRRKQGKPQHLSKREFSPEPLEAILTDDEPDHGPLGAPEGDHDLLTCGQCQMNFPLGDILIFIEHKRKQCNGSLCLEKAVDKPPSPSPIEMKKASNPVEVGIQVTPEDDDCLSTSSRGICPKQEHIADKLLHWRGLSSPRSAHGALIPTPGMSAEYAPQGICKDEPSSYTCTTCKQPFTSAWFLLQHAQNTHGLRIYLESEHGSPLTPRVGIPSGLGAECPSQPPLHGIHIADNNPFNLLRIPGSVSREASGLAEGRFPPTPPLFSPPPRHHLDPHRIERLGAEEMALATHHPSAFDRVLRLNPMAMEPPAMDFSRRLRELAGNTSSPPLSPGRPSPMQRLLQPFQPGSKPPFLATPPLPPLQSAPPPSQPPVKSKSCEFCGKTFKFQSNLVVHRRSHTGEKPYKCNLCDHACTQASKLKRHMKTHMHKSSPMTVKSDDGLSTASSPEPGTSDLVGSASSALKSVVAKFKSENDPNLIPENGDEEEEEDDEEEEEEEEEEEEELTESERVDYGFGLSLEAARHHENSSRGAVVGVGDESRALPDVMQGMVLSSMQHFSEAFHQVLGEKHKRGHLAEAEGHRDTCDEDSVAGESDRIDDGTVNGRGCSPGESASGGLSKKLLLGSPSSLSPFSKRIKLEKEFDLPPAAMPNTENVYSQWLAGYAASRQLKDPFLSFGDSRQSPFASSSEHSSENGSLRFSTPPGELDGGISGRSGTGSGGSTPHISGPGPGRPSSKEGRRSDTCEYCGKVFKNCSNLTVHRRSHTGERPYKCELCNYACAQSSKLTRHMKTHGQVGKDVYKCEICKMPFSVYSTLEKHMKKWHSDRVLNNDIKTE
partner: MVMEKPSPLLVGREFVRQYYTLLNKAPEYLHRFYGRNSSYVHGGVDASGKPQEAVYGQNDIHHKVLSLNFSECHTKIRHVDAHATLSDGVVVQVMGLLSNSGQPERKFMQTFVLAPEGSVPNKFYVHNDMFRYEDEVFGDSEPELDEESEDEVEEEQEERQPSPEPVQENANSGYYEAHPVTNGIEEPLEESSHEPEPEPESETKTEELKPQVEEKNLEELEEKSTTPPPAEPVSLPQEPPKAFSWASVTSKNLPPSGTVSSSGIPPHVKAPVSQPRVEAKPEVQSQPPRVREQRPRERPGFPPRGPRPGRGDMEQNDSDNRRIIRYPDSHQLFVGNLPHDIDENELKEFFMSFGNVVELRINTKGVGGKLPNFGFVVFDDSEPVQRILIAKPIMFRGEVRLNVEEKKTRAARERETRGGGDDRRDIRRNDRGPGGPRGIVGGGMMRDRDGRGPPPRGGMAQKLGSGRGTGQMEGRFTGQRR
B5: Tyrosine-protein phosphatase non-receptor type 22 (Homo sapiens), Q9Y2R2 (parent)
chain: MDQREILQKFLDEAQSKKITKEEFANEFLKLKRQSTKYKADKTYPTTVAEKPKNIKKNRYKDILPYDYSRVELSLITSDEDSSYINANFIKGVYGPKAYIATQGPLSTTLLDFWRMIWEYSVLIIVMACMEYEMGKKKCERYWAEPGEMQLEFGPFSVSCEAEKRKSDYIIRTLKVKFNSETRTIYQFHYKNWPDHDVPSSIDPILELIWDVRCYQEDDSVPICIHCSAGCGRTGVICAIDYTWMLLKDGIIPENFSVFSLIREMRTQRPSLVQTQEQYELVYNAVLELFKRQMDVIRDKHSGTESQAKHCIPEKNHTLQADSYSPNLPKSTTKAAKMMNQQRTKMEIKESSSFDFRTSEISAKEELVLHPAKSSTSFDFLELNYSFDKNADTTMKWQTKAFPIVGEPLQKHQSLDLGSLLFEGCSNSKPVNAAGRYFNSKVPITRTKSTPFELIQQRETKEVDSKENFSYLESQPHDSCFVEMQAQKVMHVSSAELNYSLPYDSKHQIRNASNVKHHDSSALGVYSYIPLVENPYFSSWPPSGTSSKMSLDLPEKQDGTVFPSSLLPTSSTSLFSYYNSHDSLSLNSPTNISSLLNQESAVLATAPRIDDEIPPPLPVRTPESFIVVEEAGEFSPNVPKSLSSAVKVKIGTSLEWGGTSEPKKFDDSVILRPSKSVKLRSPKSELHQDRSSPPPPLPERTLESFFLADEDCMQAQSIETYSTSYPDTMENSTSSKQTLKTPGKSFTRSKSLKILRNMKKSICNSCPPNKPAESVQSNNSSSFLNFGFANRFSKPKGPRNPPPTWNI
B6: Fanconi anemia group A protein (Homo sapiens), O15360 (parent)
chain: MSDSWVPNSASGQDPGGRRRAWAELLAGRVKREKYNPERAQKLKESAVRLLRSHQDLNALLLEVEGPLCKKLSLSKVIDCDSSEAYANHSSSFIGSALQDQASRLGVPVGILSAGMVASSVGQICTAPAETSHPVLLTVEQRKKLSSLLEFAQYLLAHSMFSRLSFCQELWKIQSSLLLEAVWHLHVQGIVSLQELLESHPDMHAVGSWLFRNLCCLCEQMEASCQHADVARAMLSDFVQMFVLRGFQKNSDLRRTVEPEKMPQVTVDVLQRMLIFALDALAAGVQEESSTHKIVRCWFGVFSGHTLGSVISTDPLKRFFSHTLTQILTHSPVLKASDAVQMQREWSFARTHPLLTSLYRRLFVMLSAEELVGHLQEVLETQEVHWQRVLSFVSALVVCFPEAQQLLEDWVARLMAQAFESCQLDSMVTAFLVVRQAALEGPSAFLSYADWFKASFGSTRGYHGCSKKALVFLFTFLSELVPFESPRYLQVHILHPPLVPGKYRSLLTDYISLAKTRLADLKVSIENMGLYEDLSSAGDITEPHSQALQDVEKAIMVFEHTGNIPVTVMEASIFRRPYYVSHFLPALLTPRVLPKVPDSRVAFIESLKRADKIPPSLYSTYCQACSAAEEKPEDAALGVRAEPNSAEEPLGQLTAALGELRASMTDPSQRDVISAQVAVISERLRAVLGHNEDDSSVEISKIQLSINTPRLEPREHMAVDLLLTSFCQNLMAASSVAPPERQGPWAALFVRTMCGRVLPAVLTRLCQLLRHQGPSLSAPHVLGLAALAVHLGESRSALPEVDVGPPAPGAGLPVPALFDSLLTCRTRDSLFFCLKFCTAAISYSLCKFSSQSRDTLCSCLSPGLIKKFQFLMFRLFSEARQPLSEEDVASLSWRPLHLPSADWQRAALSLWTHRTFREVLKEEDVHLTYQDWLHLELEIQPEADALSDTERQDFHQWAIHEHFLPESSASGGCDGDLQAACTILVNALMDFHQSSRSYDHSENSDLVFGGRTGNEDIISRLQEMVADLELQQDLIVPLGHTPSQEHFLFEIFRRRLQALTSGWSVAASLQRQRELLMYKRILLRLPSSVLCGSSFQAEQPITARCEQFFHLVNSEMRNFCSHGGALTQDITAHFFRGLLNACLRSRDPSLMVDFILAKCQTKCPLILTSALVWWPSLEPVLLCRWRRHCQSPLPRELQKLQEGRQFASDFLSPEAASPAPNPDWLSAAALHFAIQQVREENIRKQLKKLDCEREELLVFLFFFSLMGLLSSHLTSNSTTDLPKAFHVCAAILECLEKRKISWLALFQLTESDLRLGRLLLRVAPDQHTRLLPFAFYSLLSYFHEDAAIREEAFLHVAVDMYLKLVQLFVAGDTSTVSPPAGRSLELKGQGNPVELITKARLFLLQLIPRCPKKSFSHVAELLADRGDCDPEVSAALQSRQQAAPDADLSQEPHLF

In the first test the parent is B1. As to conditions: with clh1_human CLTC.
Take MQSESGIVPDFEVGEEFHEEPKTYYELKSQPLKSSSSAEHPGASKPPISSSSMTSRILLRQQLMREQMQEQERREQQQKLQAAQFMQQRVPVSQTPAINVSVPTTLPSATQVPMEVLKVQTHLENPTKYHIQQAQRQQVKQYLSTTLANKHANQVLSLPCPNQPGDHVMPPVPGSSAPNSPMAMLTLNSNCEKEGFYKFEEQNRAESECPGMNTHSRASCMQMDDVIDDIISLESSYNEEILGLMDPALQMANTLPVSGNLIDLCGNQGLPPPGLTISNSCPANLPNIKRELTACIFPTESEARALAKERQKKDNHNLIERRRRFNINDRIKELGTLIPKSNDPDMRWNKGTILKASVDYIRKLQREQQRAKELENRQKKLEHANRHLLLRIQELEMQARAHGLSLIPSTGLCSPDLVNRIIKQEPVLENCSQDLLQHHADLTCTTTLDLTDGTITFNNNLGTGTEANQAYSVPTKMGSKLEDILMDDTLSPVGVTDPLLSSVSPGASKTSSRRSSMSMEETEHTC [Y265C]: the “effect of a mutation on the interaction” value is “with no effect”.

Variants of B2 are the subject of a further test. As to conditions: with ima3_human KPNA4, O00629.
ima3_human KPNA4, O00629, sequence (O00629 whole entry): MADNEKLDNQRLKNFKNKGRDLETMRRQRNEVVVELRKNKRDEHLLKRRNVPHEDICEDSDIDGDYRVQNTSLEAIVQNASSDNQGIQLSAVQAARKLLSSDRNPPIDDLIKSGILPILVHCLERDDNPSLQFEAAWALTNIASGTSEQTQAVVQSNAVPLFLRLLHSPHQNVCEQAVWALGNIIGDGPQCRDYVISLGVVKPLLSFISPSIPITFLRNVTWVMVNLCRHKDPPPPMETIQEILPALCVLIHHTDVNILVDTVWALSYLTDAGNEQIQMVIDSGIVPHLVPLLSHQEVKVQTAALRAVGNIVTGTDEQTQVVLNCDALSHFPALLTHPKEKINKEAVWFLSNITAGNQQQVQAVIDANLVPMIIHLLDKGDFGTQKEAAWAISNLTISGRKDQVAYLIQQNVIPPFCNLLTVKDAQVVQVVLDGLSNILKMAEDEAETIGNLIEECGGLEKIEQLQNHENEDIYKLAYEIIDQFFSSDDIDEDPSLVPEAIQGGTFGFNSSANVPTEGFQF
In the case of MEGESTSAVLSGFVLGALAFQHLNTDSDTEGFLLGEVKGEAKNSITDSQMDDVEVVYTIDIQKYIPCYQLFSFYNSSGEVNEQALKKILSNVKKNVVGWYKFRRHSDQIMTFRERLLHKNLQEHFSNQDLVFLLLTPSIITESCSTHRLEHSLYKPQKGLFHRVPLVVANLGMSEQLGYKTVSGSCMSTGFSRAVQTHSSKFFEEDGSLKEVHKINEMYASLQEELKSICKKVEDSEQAVDKLVKDVNRLKREIEKRRGAQIQAAREKNIQKDPQENIFLCQALRTFFPNSEFLHSCVMSLKNRHVSKSSCNYNHHLDVVDNLTLMVEHTDIPEASPASTPQIIKHKALDLDDRWQFKRSQLLDTQDKRSKADTGSSNQDKASKMSSPETDEEIEKMKGFGEYSRSPTF [R361Q], the “effect of a mutation on the interaction” value was “decreasing interaction strength”.

A further test covers variants of B3. As to conditions: with nedd4_human NEDD4, P46934.
nedd4_human NEDD4, P46934, sequence (P46934 whole entry): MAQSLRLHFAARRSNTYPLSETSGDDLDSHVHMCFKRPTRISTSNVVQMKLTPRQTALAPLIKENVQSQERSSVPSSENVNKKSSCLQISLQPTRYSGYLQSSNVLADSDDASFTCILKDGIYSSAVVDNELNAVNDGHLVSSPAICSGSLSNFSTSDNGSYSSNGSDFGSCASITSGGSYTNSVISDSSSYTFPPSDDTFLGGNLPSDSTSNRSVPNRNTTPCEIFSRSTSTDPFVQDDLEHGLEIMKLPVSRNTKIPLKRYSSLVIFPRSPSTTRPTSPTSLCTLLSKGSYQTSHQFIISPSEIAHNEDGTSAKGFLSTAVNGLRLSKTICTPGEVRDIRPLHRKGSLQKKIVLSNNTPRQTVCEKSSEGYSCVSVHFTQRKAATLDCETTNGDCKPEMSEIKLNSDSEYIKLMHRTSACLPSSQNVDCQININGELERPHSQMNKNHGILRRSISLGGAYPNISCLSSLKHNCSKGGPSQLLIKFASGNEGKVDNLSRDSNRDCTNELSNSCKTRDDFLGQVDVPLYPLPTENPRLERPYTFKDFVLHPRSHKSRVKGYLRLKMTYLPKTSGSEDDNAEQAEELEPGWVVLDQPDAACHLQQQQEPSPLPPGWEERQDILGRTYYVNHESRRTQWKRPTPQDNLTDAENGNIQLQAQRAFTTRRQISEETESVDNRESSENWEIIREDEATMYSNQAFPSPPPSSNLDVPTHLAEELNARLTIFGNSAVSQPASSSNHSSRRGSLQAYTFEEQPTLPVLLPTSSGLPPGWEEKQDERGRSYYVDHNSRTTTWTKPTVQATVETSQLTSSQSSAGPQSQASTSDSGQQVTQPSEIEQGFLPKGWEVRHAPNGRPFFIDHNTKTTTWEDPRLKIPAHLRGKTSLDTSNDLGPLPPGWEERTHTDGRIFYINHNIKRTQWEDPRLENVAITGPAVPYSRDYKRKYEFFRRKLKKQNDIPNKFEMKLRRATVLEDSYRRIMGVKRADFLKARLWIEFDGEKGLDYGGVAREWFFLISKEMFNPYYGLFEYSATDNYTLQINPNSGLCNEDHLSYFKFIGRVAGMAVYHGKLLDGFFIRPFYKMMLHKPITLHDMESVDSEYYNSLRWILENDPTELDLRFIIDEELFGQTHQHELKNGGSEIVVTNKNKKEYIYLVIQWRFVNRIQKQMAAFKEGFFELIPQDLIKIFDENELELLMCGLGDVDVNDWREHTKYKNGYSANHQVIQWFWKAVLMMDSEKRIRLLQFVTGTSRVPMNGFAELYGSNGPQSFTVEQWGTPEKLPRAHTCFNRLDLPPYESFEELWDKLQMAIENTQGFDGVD
As for P618R, the “effect of a mutation on the interaction” value is recorded as “decreasing interaction strength”.
Still for that read-out and setting: in the case of Y620H it was “decreasing interaction strength”; in that of P617S, “decreasing interaction strength”.

The next test covers variants of B3. Conditions: with wwtr1_human WWTR1, Q9GZV5.
wwtr1_human WWTR1, Q9GZV5, sequence (Q9GZV5 whole entry): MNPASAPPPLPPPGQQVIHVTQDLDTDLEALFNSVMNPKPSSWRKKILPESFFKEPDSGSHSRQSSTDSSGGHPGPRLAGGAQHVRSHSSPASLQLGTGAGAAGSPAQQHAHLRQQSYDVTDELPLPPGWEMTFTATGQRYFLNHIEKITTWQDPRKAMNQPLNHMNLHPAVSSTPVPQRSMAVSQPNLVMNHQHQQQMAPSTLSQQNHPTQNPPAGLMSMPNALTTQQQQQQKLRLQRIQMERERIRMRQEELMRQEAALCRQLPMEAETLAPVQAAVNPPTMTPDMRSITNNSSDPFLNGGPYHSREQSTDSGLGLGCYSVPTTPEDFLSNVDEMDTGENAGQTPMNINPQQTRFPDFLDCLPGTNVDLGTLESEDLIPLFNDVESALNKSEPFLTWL
In the case of P618R, the “effect of a mutation on the interaction” value is reported as “decreasing interaction strength”.
As for Y620H, the “effect of a mutation on the interaction” value is given as “decreasing interaction strength”.
For the variant P617S, the “effect of a mutation on the interaction” value is listed as “decreasing interaction strength”.

Variants of B3 are the subject of a further test. As to conditions: with nedd4_human NEDD4, P46934. The source holds these as a separate data set.
With P616R, the “effect of a mutation on the interaction” value is listed as “decreasing interaction strength”.

A further test covers variants of B4. As to conditions: with G3BP2, Q9UN86.
Consider C48F, for which the “effect of a mutation on the interaction” value was “causing an interaction”.

Variants of B5 are the subject of another test. Conditions: with itsn1_human ITSN1, Q15811.
itsn1_human ITSN1, Q15811, sequence (Q15811 whole entry): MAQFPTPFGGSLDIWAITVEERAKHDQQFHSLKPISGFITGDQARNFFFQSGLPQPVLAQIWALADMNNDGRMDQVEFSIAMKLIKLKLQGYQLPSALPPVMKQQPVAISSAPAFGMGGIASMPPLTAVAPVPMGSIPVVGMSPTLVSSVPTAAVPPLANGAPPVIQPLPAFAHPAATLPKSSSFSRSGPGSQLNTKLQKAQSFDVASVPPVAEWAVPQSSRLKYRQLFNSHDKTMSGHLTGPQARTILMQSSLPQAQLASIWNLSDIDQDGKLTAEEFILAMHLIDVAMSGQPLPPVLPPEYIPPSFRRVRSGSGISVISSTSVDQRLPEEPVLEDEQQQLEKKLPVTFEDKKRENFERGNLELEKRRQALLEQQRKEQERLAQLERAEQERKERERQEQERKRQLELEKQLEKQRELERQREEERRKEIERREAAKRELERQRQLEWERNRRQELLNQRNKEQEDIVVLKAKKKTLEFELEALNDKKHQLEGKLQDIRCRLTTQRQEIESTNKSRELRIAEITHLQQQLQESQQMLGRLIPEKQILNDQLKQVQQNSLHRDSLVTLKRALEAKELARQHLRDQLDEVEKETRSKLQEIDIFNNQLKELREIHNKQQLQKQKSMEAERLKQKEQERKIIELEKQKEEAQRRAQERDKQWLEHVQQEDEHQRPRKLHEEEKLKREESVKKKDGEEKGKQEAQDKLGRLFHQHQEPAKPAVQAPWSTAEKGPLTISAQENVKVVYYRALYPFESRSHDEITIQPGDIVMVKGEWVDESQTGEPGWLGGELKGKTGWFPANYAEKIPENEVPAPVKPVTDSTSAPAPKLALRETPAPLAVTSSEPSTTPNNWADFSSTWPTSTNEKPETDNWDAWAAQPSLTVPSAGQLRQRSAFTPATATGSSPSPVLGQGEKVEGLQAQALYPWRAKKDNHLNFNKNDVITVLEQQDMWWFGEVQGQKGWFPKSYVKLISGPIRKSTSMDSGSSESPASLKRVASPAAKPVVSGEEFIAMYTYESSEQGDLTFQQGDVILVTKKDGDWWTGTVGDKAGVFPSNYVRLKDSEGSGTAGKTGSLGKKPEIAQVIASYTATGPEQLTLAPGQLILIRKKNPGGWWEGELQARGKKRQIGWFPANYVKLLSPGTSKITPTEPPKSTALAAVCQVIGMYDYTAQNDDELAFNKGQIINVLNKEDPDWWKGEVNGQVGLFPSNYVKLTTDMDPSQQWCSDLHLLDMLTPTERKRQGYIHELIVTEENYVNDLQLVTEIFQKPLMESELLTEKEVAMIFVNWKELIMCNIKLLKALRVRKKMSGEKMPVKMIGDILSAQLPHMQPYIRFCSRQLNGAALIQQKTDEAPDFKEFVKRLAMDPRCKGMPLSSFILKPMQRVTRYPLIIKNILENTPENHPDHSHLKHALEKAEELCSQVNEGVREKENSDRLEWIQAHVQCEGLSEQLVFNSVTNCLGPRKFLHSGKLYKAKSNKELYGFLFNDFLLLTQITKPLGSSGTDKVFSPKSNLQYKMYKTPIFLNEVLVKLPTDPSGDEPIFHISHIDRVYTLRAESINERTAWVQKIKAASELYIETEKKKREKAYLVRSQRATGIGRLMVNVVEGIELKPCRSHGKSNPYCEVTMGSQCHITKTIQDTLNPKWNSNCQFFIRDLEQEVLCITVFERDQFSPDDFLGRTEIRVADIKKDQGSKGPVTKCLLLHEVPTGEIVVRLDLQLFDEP
With R620W, the “effect of a mutation on the interaction” value is given as “decreasing interaction strength”.

The variants in the next test derive from B6. As to conditions: with cskp_human CASK.
As to S4L, the “effect of a mutation on the interaction” value is “causing an interaction”.
